Assay results from US20240352438A1, “MEANS AND METHODS FOR DETOXIFYING OCHRATOXIN A” (DSM Austria GmbH, priority 2021, published 2024).
Positions count from the first letter of the chain named.

B1: 160 (protein)
chain: MTTRTRILTAFLSLLAANACAADAAPAAPHTVVLRAARMFDGASGKLVDHPQLTIVGNKIVRIAQGDKAEVPAGAEVVDLGDATLLPGFIDAHVHLSGQSSDNWYGDFFDNMMRFPAEQALYGAYYARITLEAGFTSVRDVGSTDWVALGLRNAIDAGKVPGPRMLVSNYAVGSTGGHADQDPIPPHKLPLAGPLQGVCNGPEECRAAVRYQIKYGANVIKFMPSGGVLSLSDPVDAPELSQDEMNAVIGESHAWGRKVAAHAHGDKAAKMAVAAGVDSIEHGSFIEDDTLRAMKAKNVYLVPTISAVAHVEEKIGTYPPVIAEKGRAAAAHLRQTFRHAVQIGVPIALGTDAGVGAHGSNAREFRYMVENGLTPAQALLAGTANAARLLGTFDRVGTLEAGKLADVVAVPGNPIADITVTERPLFVMKDGVVVRRDAVR
modifications: exemplary polypeptide
B2: 117 (protein)
chain: B1 chain with F108Y, V308I, Y318F
modifications: exemplary polypeptide
B3: 164 (protein)
chain: B1 chain with A171P, I184V, V308A, Y318F
modifications: exemplary polypeptide
B4: 118 (protein)
chain: B1 chain with M113Q, V308I, Y318F
modifications: exemplary polypeptide
B5: 142 (protein)
chain: B1 chain with G142P, V308I, Y318F
modifications: exemplary polypeptide
B6: 86 (protein)
chain: B1 chain with A307T, V308I, Y318F
modifications: exemplary polypeptide
B7: 134 (protein)
chain: B1 chain with N111D, V308I, Y318F
modifications: exemplary polypeptide
B8: 93 (protein)
chain: B1 chain with V308I, Y318F, A329G
modifications: exemplary polypeptide
B9: 101 (protein)
chain: B1 chain with M112I, V308I, Y318F
modifications: exemplary polypeptide
B10: 165 (protein)
chain: B1 chain with A171P, I184V, Y318F
modifications: exemplary polypeptide
B11: 90 (protein)
chain: B1 chain with V308I, Y318F, G354A
modifications: exemplary polypeptide
B12: 104 (protein)
chain: B1 chain with I184F, V308I, Y318F
modifications: exemplary polypeptide
B13: 129 (protein)
chain: B1 chain with S100C, V308I, T317C, Y318F
modifications: exemplary polypeptide
B14: 162 (protein)
chain: B1 chain with Y318F, G354A
modifications: exemplary polypeptide
B15: 99 (protein)
chain: B1 chain with F109V, V308I, Y318F
modifications: exemplary polypeptide
B16: 100 (protein)
chain: B1 chain with F109L, V308I, Y318F
modifications: exemplary polypeptide
B17: 102 (protein)
chain: B1 chain with M112W, V308I, Y318F
modifications: exemplary polypeptide
B18: 92 (protein)
chain: B1 chain with V308I, Y318M
modifications: exemplary polypeptide
B19: 110 (protein)
chain: B1 chain with V308I, K314E, Y318F
modifications: exemplary polypeptide
B20: 65 (protein)
chain: B1 chain with V308I, Y318F, N361W
modifications: exemplary polypeptide
B21: 149 (protein)
chain: B1 chain with A179T, V308I, Y318F
modifications: exemplary polypeptide
B22: 135 (protein)
chain: B1 chain with Y300C, V308I, Y318F, L389C
modifications: exemplary polypeptide
B23: 133 (protein)
chain: B1 chain with A307V, V308I, Y318F
modifications: exemplary polypeptide
B24: 126 (protein)
chain: B1 chain with H253E, D278R, V308I, Y318F
modifications: exemplary polypeptide
B25: 302 (protein)
chain: B1 chain with V308I, Y318F, G354P, V355L
modifications: exemplary polypeptide
B26: 109 (protein)
chain: B1 chain with V308I, K314Q, Y318F
modifications: exemplary polypeptide
B27: 314 (protein)
chain: B1 chain with Y318F, L333I
modifications: exemplary polypeptide
B28: 298 (protein)
chain: B1 chain with V308I, Y318F, G354A, G356Y
modifications: exemplary polypeptide
B29: 163 (protein)
chain: B1 chain with V308I, G354A
modifications: exemplary polypeptide
B30: 232 (protein)
chain: B1 chain with D233Q, V308I, Y318F
modifications: exemplary polypeptide

assay: OTA detoxification activity assay (specific activity, fluorescence reduction ex/em 390/450 nm); type: biochemical; details: pH 6.0; SEQ ID NO: 1 = 100%
Procedure, shortened: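 Recombinant enzyme preparation with 200 ng/mL OTA in 100 mM sodium phosphate, at pH 6.0 and pH 7.5, 37° C. Degradation followed as the fall in fluorescence at ex/em 390/450 nm. Specific activity taken from the initial linear slope; one unit degrades 1 μmol OTA per min at a starting OTA of […].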

Row | Molecule | Specific OTA detoxification activities in % compared to the enzyme of SEQ ID NO: 1, pH 6.0 [%]
1 | B1 | 78
2 | B2 | 40
3 | B3 | 29
4 | B4 | 26
5 | B5 | 34
6 | B6 | 4
7 | B7 | 41
8 | B8 | 20
9 | B9 | 82
10 | B10 | 46
11 | B11 | 99
12 | B12 | 102
13 | B13 | 51
14 | B14 | 191
15 | B15 | 52
16 | B16 | 43
17 | B17 | 50
18 | B18 | 37
19 | B19 | 33
20 | B20 | 4
21 | B21 | 30
22 | B22 | 68
23 | B23 | 23
24 | B24 | 63
25 | B25 | 26
26 | B26 | 74
27 | B27 | 71
28 | B28 | 15
29 | B29 | 145

same assay, conditions: pH 7.5; SEQ ID NO: 1 = 100%

Row | Molecule | Specific OTA detoxification activities in % compared to the enzyme of SEQ ID NO: 1, pH 7.5 [%]
30 | B1 | 84
31 | B2 | 80
32 | B3 | 63
33 | B4 | 22
34 | B5 | 8
35 | B6 | 9
36 | B7 | 52
37 | B8 | 17
38 | B9 | 89
39 | B10 | 71
40 | B11 | 162
41 | B12 | 71
42 | B13 | 83
43 | B14 | 124
44 | B15 | 58
45 | B16 | 28
46 | B17 | 89
47 | B18 | 52
48 | B19 | 48
49 | B20 | 10
50 | B21 | 13
51 | B22 | 70
52 | B23 | 27
53 | B24 | 75
54 | B25 | 23
55 | B26 | 107
56 | B27 | 33
57 | B28 | 17
58 | B29 | 112

assay: Enzymatic activity comparison: activity remaining after 65° C. for 10 min at pH 6.0, relative to SEQ ID NO: 1; type: physicochemical; details: not given
Method: To compare the temperature behavior and thermostability of selected enzymes to one another, enzyme was incubated at 65° C. for 10 min at pH 6.0. The enzymatic activity remaining after incubation was compared to the remaining activity of the enzyme of SEQ ID NO: 1 after incubation, the latter being set to 100%, see Table 16.

Row | Molecule | Enzymatic activity remaining after incubation, compared to SEQ ID NO: 1 (set to 100%) [%]
59 | B1 | 30
60 | B3 | 15
61 | B10 | 33
62 | B14 | 7
63 | B30 | 25
64 | B29 | 17
